{"source": "patent US20250163116A1", "about": "“NEW METHOD TO TREAT INFECTIOUS DISEASES” (INSERM (INSTITUT NATIONAL DE LA SANTÉ ET DE LA RECHERCHE …, priority 2022, published 2025)", "molecules": {"B1": {"name": "ANGPTL4: Recombinant human ANGPTL4 (Angiopoietin-like 4), full length, SEQ ID NO: 1, purchased from R&D Systems (protein, listed as Homo sapiens)", "chain": "MSGAPTAGAALMLCAATAVLLSAQGGPVQSKSPRFASWDEMNVLAHGLLQLGQGLREHAERTRSQLSALERRLSACGSACQGTEGSTDLPLAPESRVDPEVLHSLQTQLKAQNSRIQQLFHKVAQQQRHLEKQHLRIQHLQSQFGLLDHKHLDHEVAKPARRKRLPEMAQPVDPAHNVSRLHRLPRDCQELFQVGERQSGLFEIQPQGSPPFLVNCKMTSDGGWTVIQRRHDGSVDFNRPWEAYKAGFGDPHGEFWLGLEKVHSITGDRNSRLAVQLRDWDGNAELLQFSVHLGGEDTAYSLQLTAPVAGQLGATTVPPSGLSVPFSTWDQDHDLRRDKNCAKSLSGGWWFGTCSHSNLNGQYFRSIPQQRQKLKKGIFWKTWRGRYYPLQATTMLIQPMAAEAAS"}}, "key": {"[1]": {"tested_on": "Src kinase and VE-cadherin phosphorylation", "test": "Src kinase and VE-cadherin phosphorylation in infected HDMECs", "assay_type": "cell-based, human", "conditions": "added 30 min after initiation of infection", "text": "(§1) In contrast to brain microvascular endothelial cells that resist to meningococcal infection, the integrity of dermal microvascular endothelial cell (HDMECs) monolayer was massively impaired upon infection, as observed with the loss of adherens junctions and cell detachment (data not shown). Since HDMEC poorly produces ANGPTL4 as compared to HBMEC (data not shown), we analysed whether the addition of recombinant human ANGPTL4 might exert a protective effect on these cells. […] Additionally, while infection was accompanied by the massive release of inflammatory cytokines (TNF-α, IL-6, IL-8), markers of vascular inflammation (E-selectin, ICAM-1, VCAM-1), and markers of endothelial cell alteration (Endoglin, Thrombomodulin), all these markers were reduced by 35 to 80% upon treatment with ANGPTL4 (data not shown)."}, "[2]": {"tested_on": "HDMEC infected with N. meningitidis 2C4.3", "test": "Caspase-3/7 apoptosis detection in infected HDMECs (IncuCyte)", "assay_type": "cell-based, human", "conditions": "Caspase-3/7 reagent, real time over 9 h, 1 μg/mL", "procedure": "FIG. 1. Exogenous ANGPTL4 exerts protective effects on dermal microvascular endothelial cells infected by N. meningitidis. A. HDMECs were infected with Nm 2C4.3 for 30 min and treated with 1 μg/mL of recombinant human ANGPTL4 for 2 h 30. Cells were fixed and stained for cellular actin, VE-cadherin and DAPI and analyzed by fluorescent microscopy. Quantifications of VE-cadherin enrichment at intercellular junctions and of intercellular spaces area were performed on 30 fields with Image J software. Kruskal-Wallis test ** P<0.001; P<0.0001. B. HDMEC were either uninfected or infected with N. meningitidis 2C4.3 for 30 min and treated with 1 μg mL−1 of recombinant human ANGPTL4, its N-terminal portion (nANGPTL4) or its C-terminal portion (cANGPTL4) for 2 h 30. Caspase-3/7 reagent was added to detect apoptosis in real time over 9 h using the IncuCyte® Live-Cell Analysis System"}, "[3]": {"tested_on": "HDMECs infected with N. meningitidis", "test": "Release of inflammatory cytokines and markers of vascular inflammation and endothelial alteration by infected HDMECs", "assay_type": "cell-based, human", "conditions": "data not shown", "text": "as §1"}, "[4]": {"tested_on": "HDMECs infected with S. pneumoniae TIGR4", "test": "Integrity of HDMECs infected with S. pneumoniae", "assay_type": "cell-based, human", "conditions": "1 μg/mL for 2 h after 30 min infection", "procedure": "FIG. 6: ANGPTL4 protects dermal microvascular endothelial cells from infection by S. pneumoniae. HDMECs were infected with S. pneumoniae TIGR4 for 30 min and treated with 1 μg/mL of recombinant human ANGPTL4 for 2 h. Cells were fixed and stained for cellular actin, VE-cadherin and DAPI and analyzed by fluorescent microscopy. Quantifications of VE-cadherin enrichment at intercellular junctions was performed on 30 fields with Image J software. Kruskal-Wallis test *** P<0.0001.\nTo address whether ANGPTL-4 could also provide vascular protection from Gram-positive bacteria, we investigated the effect of ANGPTL-4 on HDMECs exposed to infection by the Gram-positive bacterium Streptococcus pneumoniae, one of the major causative agents of pneumonia, sepsis, meningitis and other morbidities."}, "[5]": {"tested_on": "SCID mice grafted with human skin infected with Nm 2C4.3", "test": "Outcome of meningococcal infection in SCID mice grafted with human skin (survival, with or without antibiotics)", "assay_type": "in vivo", "procedure": "A-D, SCID mice grafted with human skin were infected intravenously with Nm 2C4.3 wild-type strain (5×10^6 bacteria); 2 h after bacterial challenge, mice received recombinant human ANGPTL4 (1 μg, intravenously), cefotaxime (200 mg kg-1, intraperitoneally) alone or in combination with ANGPTL4 or vehicle as a control. 18 h following bacterial challenge, ANGPTL4 (1 μg) and cefotaxime (200 mg kg-1) were re-administered. This experiment was performed twice with n=3 or 4 mice per group, using skin from two different donors. A, A schematic representation of the protocol used in vivo. B, Bacteraemia 4, 18, 48 and 72 h post-infection (mean±s.e.m.). C, Survival curve: * P=0.0275; two-sided log-rank Mantel-Cox survival analysis. D, Thrombosis within the skin grafts at 4 h post-infection was assessed by immunofluorescence analysis and quantified as described in FIG. 8 (error bars show mean±s.e.m.; 40 vessels per mouse were analysed; n=4 mice per group; *** P<0.001; two-tailed Student's t-test.\nSix-week-old CB17/Icr-Prkdcscid female mice were obtained from Janvier Labs. Human skin tissues were obtained from adult patients undergoing plastic surgery in the Service de Chirurgie Plastique et Reconstructive of the Groupe Hospitalier Saint-Joseph. […] Experimental procedures were performed as previously described in accordance with the guidelines of the Institut National de la Santé et de la Recherche Médicale and conformed to the European ethical legislation (Directive 2010/63/EU). The experimental protocol was approved by the Animal Experimentation Ethics Committee of the Université Paris Descartes (consent forms CEEA34.O.J.L.039.12 and 2018012515596498). […] A skin flap was created and a full thickness human skin graft was placed onto the wound bed. The transplants were held in place with 6-0 non-absorbable monofilament suture materials, and the flap was then sutured above the transplant. Grafted mice were infected 4-6 weeks after human skin transplantation. N. meningitidis was grown overnight at 37° C. on GCB agar plates prepared without iron and supplemented with 15 μM deferoxamine (Desferal, Novartis). Bacterial colonies were harvested and cultured in RPMI media with 1% BSA medium and 0.06 μM deferoxamine with gentle agitation to reach the exponential phase of growth. Bacteria were then resuspended in physiological saline solution. Mice were infected intravenously with 200 μl (5×10^6 bacteria) of this bacterial suspension. A 10 mg dose of human holotransferrin (R&D Systems) was administered intraperitoneally just before infection. Mice were killed at 4 h after infection. Human skin grafts were carefully collected using a sterile cutter. The tissue was washed in PBS and fixed overnight at 4° C. in 4% paraformaldehyde in phosphate buffer. After washing in phosphate buffer, the specimens were embedded in OCT medium and then frozen at −80° C. Sections of the dermis (7 μm thick) were immobilized on Superfrost Plus microscope slides and subjected to immunofluorescence analysis. Sections were incubated with the primary antibodies for 1 h in PBS/3% BSA then DAPI was added to Alexa-conjugated secondary antibodies for 1 h. After additional washing, coverslips were mounted in glycergel (Dako) and were further analysed using a slide scanner (Lamina, Perkin Elmer). Analysis of the images was performed using ImageJ software (NIH). […]\nWe then analysed whether ANGPTL4 could provide a beneficial effect when administered with antibiotics."}, "[6]": {"tested_on": "HDMECs infected with Nm 2C4.3", "test": "Integrity of HDMEC monolayers infected with N. meningitidis (VE-cadherin at intercellular junctions, immunofluorescence)", "assay_type": "cell-based, human", "conditions": "uninfected HDMECs"}}, "data": [{"molecule": "B1", "values": [{"measurement": "Src kinase and VE-cadherin phosphorylation", "setting": "[1]", "value": "significantly reduced"}, {"measurement": "cell apoptosis induced by meningococcal infection", "setting": "[2]", "value": "inhibited cell apoptosis"}, {"measurement": "reduction of TNF-α, IL-6, IL-8, E-selectin, ICAM-1, VCAM-1, Endoglin, Thrombomodulin release", "setting": "[3]", "value": "35 to 80", "unit": "%"}, {"measurement": "endothelial integrity (cell junction organization) upon S. pneumoniae infection", "setting": "[4]", "value": "preserved endothelial integrity"}, {"measurement": "mice surviving the infection", "setting": "[5]; 1 μg/mouse i.v., 2 h post-infection, all control mice died", "value": 15, "unit": "%"}, {"measurement": "signs of thrombosis and vascular leakage in human dermal vessels of grafts", "setting": "[5]; at the time of death, data not shown", "value": "reduced signs of thrombosis and vascular leakage"}, {"measurement": "effect on organization of the adherens junctions formed by HDMECs", "setting": "[6]", "value": "no significant effect"}]}]}
